Experimental data taken from US20030180306A1 (Pfizer, published 2003).

Target: T1, recombinant purified GDF-8 (UniProt O14793 267-375, limits assumed)
T1 sequence (looked up): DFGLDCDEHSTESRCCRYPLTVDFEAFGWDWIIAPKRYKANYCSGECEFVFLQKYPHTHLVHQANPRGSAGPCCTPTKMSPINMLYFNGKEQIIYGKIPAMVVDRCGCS
Test: cell-based or functional assay

B1: mouse GASP1 cloned with a C-terminal V5-His tag (GASP1-V5-His) (other, not shown: small tags and cut ends)
chain: LPPIRYSHAGICPNDMNPNLWVDAQSTCKRECETDQECETYEKCCPNVCGTKSCVAARYMDVKGKKGPVGMPKEATCDHFMCLQQGSECDIWDGQPVCKCKDRCEKEPSFTCASDGLTYYNRCFMDAEACSKGITLSVVTCRYHFTWPNTSPPPPETTVHPTTASPETLGLDMAAPALLNHPVHQSVTVGETVSFLCDVVGRPRPELTWEKQLEDRENVVMRPNHVRGNVVVTNIAQLVIYNVQPQDAGIYTCTARNVAGVLRADFPLSVVRGGQARATSESSLNGTAFPATECLKPPDSEDCGEEQTRWHFDAQANNCLTFTFGHCHHNLNHFETYEACMLACMSGPLATCSLPALQGPCKAYVPRWAYNSQTGLCQSFVYGGCEGNGNNFESREACEESCPFPRGNQHCRACKPRQKLVTSFCRSDFVILGRVSELTEEQDSGRALVTVDEVLKDEKMGLKFLGREPLEVTLLHVDWTCPCPNVTVGETPLIIMGEVDGGMAMLRPDSFVGASSTRRVRKLREVMYKKTCDVLKDFLGLQ
IC50 for inhibition of GDF-8 (20 ng/ml) in the (CAGA)12 luciferase reporter gene assay, RD cells, purified GASP1-V5-His: ~3 nM
